Measurements published in US20250368745A1 (published 2025).
Residue numbers refer to the chain shown, from its start.

T1: human IL-18BP (human, UniProt O95998 31-194)
T1 construct: UniProt printed as 095998; also called hIL-18BP
T1 sequence: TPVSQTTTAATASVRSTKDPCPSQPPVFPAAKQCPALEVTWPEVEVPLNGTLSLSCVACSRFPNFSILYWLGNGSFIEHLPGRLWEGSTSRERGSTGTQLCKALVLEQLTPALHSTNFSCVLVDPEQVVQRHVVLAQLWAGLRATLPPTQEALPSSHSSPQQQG

T2: cynomolgus IL-18BP (cynomolgus monkey)
T2 construct: also called cyno IL-18BP; cyIL-18BP
T2 chain: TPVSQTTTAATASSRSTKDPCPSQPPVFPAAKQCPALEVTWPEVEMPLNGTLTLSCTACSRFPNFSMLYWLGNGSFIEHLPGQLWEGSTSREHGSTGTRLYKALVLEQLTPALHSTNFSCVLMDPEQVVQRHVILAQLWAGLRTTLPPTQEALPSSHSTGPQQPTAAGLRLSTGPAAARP

T3: human IL-18BP (interleukin-18 binding protein, isoform A) (human, UniProt O95998 31-194)
T3 construct: cell assays used Sino Biological 10357-H08H; PBMC assay 1 relies on endogenous IL-18BP; UniProt number is printed as 095998; also called hIL-18BP
T3 sequence: T1 sequence

T4: cynomolgus IL-18BP (cynomolgus monkey)
T4 construct: Generated in-house; also called cyIL-18BP; cyno IL-18BP
T4 chain: T2 chain

B1: SA301a HC-Y50A (antibody, name in Kabat numbering, V domains shown)
VH: QVQLQESGPGLVKPSQTLSLTCTVSGYSITSDYNSHWIRQPPGKGLEWIGAIHYSGSTNYNPSLKSRVTISRDTSKNQFSLKLSSVTAADTAVYYCARNYGSIYVNYFDYWGQGTLVTVSS
VL: EIVLTQSPATLSLSPGERATLSCSASSSVSYMYWYQQKPGQAPRPLIYRTSNLASGIPARFSGSGSGTDFTLTISSLEPEDFAVYYCQQYHSYPTFGGGTKVEIK
notes: IgG1 kappa
B2: SA301a HC-Y50V (antibody, name in Kabat numbering, V domains shown)
VH: B1 VH with A51V
VL: B1 VL
notes: IgG1 kappa
B3: SA301a HC-I51R (antibody, name in Kabat numbering, V domains shown)
VH: B1 VH with A51Y, I52R
VL: B1 VL
notes: IgG1 kappa
B4: SA301a HC-Y50P (antibody, name in Kabat numbering, V domains shown)
VH: B1 VH with A51P
VL: B1 VL
notes: IgG1 kappa
B5: SA301a HC-Y50R (antibody, name in Kabat numbering, V domains shown)
VH: B1 VH with A51R
VL: B1 VL
notes: IgG1 kappa
B6: SA301a HC-Y50Q (antibody, name in Kabat numbering, V domains shown)
VH: B1 VH with A51Q
VL: B1 VL
notes: IgG1 kappa
B7: SA301a HC-Y50H (antibody, name in Kabat numbering, V domains shown)
VH: B1 VH with A51H
VL: B1 VL
notes: IgG1 kappa
B8: SA301a HC-Y50G (antibody, name in Kabat numbering, V domains shown)
VH: B1 VH with A51G
VL: B1 VL
notes: IgG1 kappa
B9: SA301a HC-I51V (antibody, name in Kabat numbering, V domains shown)
VH: B1 VH with A51Y, I52V
VL: B1 VL
notes: IgG1 kappa
B10: SA301a HC-Y50I (antibody, name in Kabat numbering, V domains shown)
VH: B1 VH with A51I
VL: B1 VL
notes: IgG1 kappa
B11: SA301a HC-Y50S (antibody, name in Kabat numbering, V domains shown)
VH: B1 VH with A51S
VL: B1 VL
notes: IgG1 kappa
B12: SA301a HC-Y50D (antibody, name in Kabat numbering, V domains shown)
VH: B1 VH with A51D
VL: B1 VL
notes: IgG1 kappa
B13: SA301a HC-Y50E (antibody, name in Kabat numbering, V domains shown)
VH: B1 VH with A51E
VL: B1 VL
notes: IgG1 kappa
B14: SA301a HC-Y50F (antibody, name in Kabat numbering, V domains shown)
VH: B1 VH with A51F
VL: B1 VL
notes: IgG1 kappa
B15: SA301a HC-I51S (antibody, name in Kabat numbering, V domains shown)
VH: B1 VH with A51Y, I52S
VL: B1 VL
notes: IgG1 kappa
B16: SA301a HC-I51M (antibody, name in Kabat numbering, V domains shown)
VH: B1 VH with A51Y, I52M
VL: B1 VL
notes: IgG1 kappa
B17: SA301a HC-Y50L (antibody, name in Kabat numbering, V domains shown)
VH: B1 VH with A51L
VL: B1 VL
notes: IgG1 kappa
B18: SA301a HC-I51P (antibody, name in Kabat numbering, V domains shown)
VH: B1 VH with A51Y, I52P
VL: B1 VL
notes: IgG1 kappa
B19: SA301a HC-I51Y (antibody, name in Kabat numbering, V domains shown)
VH: B1 VH with A51Y, I52Y
VL: B1 VL
notes: IgG1 kappa
B20: SA301a HC-I51T (antibody, name in Kabat numbering, V domains shown)
VH: B1 VH with A51Y, I52T
VL: B1 VL
notes: IgG1 kappa
B21: SA301a HC-Y50K (antibody, name in Kabat numbering, V domains shown)
VH: B1 VH with A51K
VL: B1 VL
notes: IgG1 kappa
B22: SA301a HC-Y50M (antibody, name in Kabat numbering, V domains shown)
VH: B1 VH with A51M
VL: B1 VL
notes: IgG1 kappa
B23: SA301a heavy chain variant N33bQ, C34S (antibody, human IgG1, V domains shown)
VH: B1 VH with N34Q, A51Y
VL: B1 VL
notes: library variant, human IgG1/kappa, from supernatant
B24: SA301a heavy chain variant N33bS, C34S (antibody, human IgG1, V domains shown)
VH: B1 VH with N34S, A51Y
VL: B1 VL
notes: as for B23
B25: SA301a heavy chain variant N33bG, C34S (antibody, human IgG1, V domains shown)
VH: B1 VH with N34G, A51Y
VL: B1 VL
notes: as for B23
B26: SA301a heavy chain variant N33bP, C34S (antibody, human IgG1, V domains shown)
VH: B1 VH with N34P, A51Y
VL: B1 VL
notes: as for B23
B27: SA301a heavy chain variant N33bK, C34S (antibody, human IgG1, V domains shown)
VH: B1 VH with N34K, A51Y
VL: B1 VL
notes: as for B23
B28: SA301a heavy chain variant N33bL, C34S (antibody, human IgG1, V domains shown)
VH: B1 VH with N34L, A51Y
VL: B1 VL
notes: as for B23
B29: SA301a heavy chain variant N33bM, C34S (antibody, human IgG1, V domains shown)
VH: B1 VH with N34M, A51Y
VL: B1 VL
notes: as for B23
B30: SA301a heavy chain variant N33bE, C34S (antibody, human IgG1, V domains shown)
VH: B1 VH with N34E, A51Y
VL: B1 VL
notes: as for B23
B31: SA301a heavy chain variant N33bD, C34S (antibody, human IgG1, V domains shown)
VH: B1 VH with N34D, A51Y
VL: B1 VL
notes: as for B23

target: T1, human IL-18BP; assay: BLI, apparent KD

Binder | Kd
B1 | 2.97 nM
B2 | 1.96 nM
B3 | 2 nM
B4 | 1.08 nM
B5 | 1.19 nM
B6 | 1.13 nM
B7 | 1.87 nM
B8 | 1.03 nM
B9 | 0.3 nM
B10 | 3.37 nM
B11 | 2.17 nM
B12 | 5.28 nM
B13 | 3.44 nM
B14 | 2.18 nM
B15 | 0.57 nM
B16 | 0.56 nM
B17 | 2.56 nM
B18 | 3.73 nM
B19 | 1.46 nM
B20 | 0.67 nM
B21 | 1.08 nM
B22 | 2.06 nM

Target: T2, cynomolgus IL-18BP
Assay: BLI, apparent KD

Binder | Kd
B1 | 3.8 nM
B2 | 10.2 nM
B3 | 1.57 nM
B4 | 4.49 nM
B5 | 4.98 nM
B6 | 1.12 nM
B7 | 3.87 nM
B8 | 2.85 nM
B9 | 0.55 nM
B10 | 6.42 nM
B11 | 2.48 nM
B12 | 16.5 nM
B13 | 8.97 nM
B14 | 1.81 nM
B15 | 0.82 nM
B16 | 0.62 nM
B17 | 1.7 nM
B18 | 1.93 nM
B19 | 1.27 nM
B20 | 0.78 nM
B21 | 2.43 nM
B22 | 1.8 nM

target: T3, human IL-18BP (interleukin-18 binding …); assay: BLI single-concentration screen, apparent KD

Binder | Kd
B23 | 1.9 nM
B24 | 1.4 nM
B25 | 0.2 nM
B26 | 2.5 nM
B27 | 0.4 nM
B28 | 0.8 nM
B29 | 1.9 nM
B30 | 0.1 nM

Target: T4, cynomolgus IL-18BP
Assay: BLI single-concentration screen, apparent KD

Binder | Kd
B31 | 0.1 nM
B23 | 1.1 nM
B24 | 1 nM
B25 | 0.5 nM
B26 | 1.3 nM
B27 | 0.9 nM
B28 | 0.6 nM
B29 | 1.4 nM
B30 | 0.2 nM
